B1: ZNF649 (parent)
chain: LVAHQRYHTGKTPFVCPECGQPCS

Variants of: B1
Assay: protein stability index of a GFP-peptide fusion (GPS, HEK-293T) (PSI 1-6); higher = more stable
Settings: c terminus: a fixed tail appended
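Note: lentivirally expressed fusions sorted by FACS into six bins by GFP to DsRed ratio, PSI derived from sequencing read proportions per bin multiplied by bin number.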

Protein stability index of substitutions, site by site:
H4: W 2.72 | Y 2.64 | D 3.98 | M 2.76 | I 2.26 | E 3.31 | F 2.76 | Q 3.61 | G 3.42 | R 2.77 | A 3.02 | C 4.02 | P 3.4 | N 3.33 | K 2.49 | L 1.81 | T 3.17 | V 2.97 | S 2.87
C16: I 2.14 | W 1.86 | P 3.48 | L 2.5 | D 3.8 | R 2.89 | G 2.91 | Q 3.03 | V 2.58 | A 2.35 | Y 2.37 | T 2.27 | K 2.75 | E 3.01 | S 3.16 | H 2.64 | N 2.88 | M 2.72 | F 2.28
T12: Y 3.02 | K 3.15 | F 2.77 | P 3.2 | R 2.91 | W 2.96 | G 3.04 | Q 2.68 | A 3.49 | E 3.86 | H 2.56 | L 2.96 | V 3.13 | S 3.5 | C 3.01 | I 3.7 | N 3.39 | M 3.12 | D 3.06
V15: D 3.83 | A 3.33 | L 3.2 | S 3.19 | G 3.03 | K 2.42 | R 3.06 | I 2.74 | Q 3.36 | C 2.88 | F 2.76 | E 3.66 | H 2.4 | Y 2.96 | M 3.3 | P 3.77 | T 3.11 | W 2.67 | N 3.51
K11: P 3.06 | I 3.31 | W 2.91 | C 3.39 | Q 3.67 | Y 3.07 | A 3.98 | D 3.45 | R 3.75 | E 3.67 | M 3.31 | G 3.45 | T 3.19 | F 2.81 | H 3.35 | N 3.48 | L 3.49 | S 3.77 | V 4.02
C19: I 2.58 | A 2.89 | E 3.03 | F 2.06 | D 3.63 | L 2.39 | H 2.92 | K 3.14 | M 2.58 | G 3.05
F14: W 3.1 | K 3.28 | R 3.38 | Y 3 | C 3.65 | P 3.58 | E 4.44 | A 3.94 | M 3.25 | V 3.81 | H 3.02 | N 3.7 | G 4.1 | L 3.7 | D 4.18 | I 3.61 | Q 3.38 | T 4.22 | S 3.93
E18: D 3.18 | K 2.54 | Y 2.27 | F 2.56 | A 2.99 | R 2.18 | G 1.8 | C 2.82 | M 2.58 | Q 3.31 | N 2.34 | W 2.7 | S 3.11 | L 2.66 | T 2.4 | P 1.91 | H 2.38 | I 2.61 | V 2.31
H8: Y 2.69 | G 2.52 | V 3.77 | F 2.49 | M 2.75 | P 3.67 | I 3.21 | W 2.57 | E 3.13 | N 3.18 | A 3.1 | Q 3.59 | T 3.26 | C 3.05 | R 2.53 | S 2.93 | D 3.54 | K 2.57 | L 2.93
T9: A 2.77 | C 2.65 | W 2.9 | G 3.53 | L 2.92 | S 3.1 | P 2.88 | I 3.77 | K 2.52 | F 3.62 | Y 3.31 | M 3.16 | H 2.6 | N 3.05 | D 3.77 | R 2.76 | Q 3.31 | V 3.06 | E 3.7
L1: Y 1.22
G10: N 3.37 | K 2.83 | C 3.44 | I 3.5 | E 3.57 | M 3.44 | W 3.9 | Q 3.28 | T 3.01 | F 3.44 | A 3.15 | R 2.78 | V 2.85 | D 3.96 | Y 2.82 | L 3.64 | H 3.24 | S 2.4 | P 3.09
A3: L 2.69 | P 3.24 | E 4.14 | V 2.46 | K 3.41 | G 3.68 | S 3.58 | R 3.14 | Y 2.38 | M 2.71 | N 2.71 | Q 3.68 | C 4.11 | I 3.32 | T 3.47 | W 2.57 | F 2.23 | H 3.59 | D 4.3
R6: N 3.37 | S 3.96 | T 3.48 | I 3.12 | C 4.33 | W 3.1 | H 4.1 | Q 3.6 | A 3.46 | F 2.69 | G 3.86 | V 2.98 | K 3.44 | M 3.19 | P 3.65 | L 2.93 | Y 3.12 | E 3.74 | D 3.58
V2: W 2.57 | T 4.06 | I 3.1 | S 3.49 | A 3.28 | D 3.87 | P 3.5 | M 3.34 | G 3.81 | Q 3.62 | F 2.78 | K 2.91 | R 3.36 | N 3.39 | Y 2.81 | C 4.4 | E 4.4 | H 4.09 | L 3.09
P17: N 3.48 | I 2.73 | F 2.16 | K 3.37 | S 3.37 | D 3.35 | V 2.59 | Y 2.48 | M 2.77 | T 3.04 | C 2.98 | G 2.92 | W 2.37 | H 2.86 | R 2.26 | L 2.26 | A 2.84 | E 3.16 | Q 3.51
Q5: N 3.15 | V 1.89 | R 3.06 | D 3.74 | W 1.16 | S 3.14 | L 2.05 | T 3.07 | K 3.03 | P 3.32 | I 3.78 | A 3.22 | G 2.98 | Y 2.74 | F 1.95 | M 2.24 | C 2.86 | E 4.17 | H 3.11
P13: T 4.15 | Q 3.32 | L 2.62 | N 3.64 | Y 3.26 | V 3.32 | C 2.71 | M 3.27 | F 2.8 | S 3.65 | W 3.63 | K 3.36 | E 3.7 | R 3.31 | H 3.36 | I 2.76 | D 3.46 | G 2.94 | A 2.94
Y7: N 3.73 | C 2.59 | H 3.56 | F 3.2 | V 3.44 | A 3.83 | M 3.67 | T 3.28 | K 3.31 | G 3.68 | I 3.21 | W 2.38 | D 4.17 | S 3.18 | P 4.04 | E 4.45 | Q 4.14 | L 2.93 | R 2.75

Source: the supplement of paper PMC10567573
